Results as given in patent publication US20230121248A1.

Assays:
Experiment in all cases: cell-based or functional assay
[1] = target: native JAM-A on CAL27 cells (UniProt Q9Y624)
[2] = target: anti-CD19 chimeric antigen receptor on anti-CD19 CAR-T cells
[3] = target: mock CAR-T cells (CAR-T not able to recognize CD19)

UniProt Q9Y624, sequence (Q9Y624 28-299 limits assumed): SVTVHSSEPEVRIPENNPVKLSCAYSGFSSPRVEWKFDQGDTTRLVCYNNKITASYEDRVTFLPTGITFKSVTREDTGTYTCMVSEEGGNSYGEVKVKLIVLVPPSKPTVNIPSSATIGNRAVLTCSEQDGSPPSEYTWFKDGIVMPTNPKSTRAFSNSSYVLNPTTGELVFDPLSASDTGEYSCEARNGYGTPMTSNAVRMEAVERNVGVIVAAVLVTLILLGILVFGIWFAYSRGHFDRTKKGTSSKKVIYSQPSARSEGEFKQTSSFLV

proliferation of CAL27 cells (ATPlite, ratio to untreated control), 1 uM soluble JAM-A [1]	Substance	proliferation (ATP fold of control) of A549 cells 72 h after the anti-CD19 CAR-T killing assay, 1 uM CM19XA [2] [fold]	proliferation (ATP fold of control) of CAL27 cells 72 h after the anti-CD19 CAR-T killing assay, 1 uM CM19XA [2] [fold]	proliferation (ATP fold of control) of A549 cells 72 h after the mock CAR-T killing assay, 1 uM CM19XA [3] [fold]	proliferation (ATP fold of control) of CAL27 cells 72 h after the mock CAR-T killing assay, 1 uM CM19XA [3] [fold]
1.24	soluble JAM-A protein (extracellular domain of JAM-A fused with MBP) (from UniProt Q9Y624 28-238)				
	CM19XA (CD19-GS linker-JAM-A-pHLIP fusion protein with N-terminal 6xHis tag)	0.74	0.72	1.03	1.01
